Experimental data reported in US20240384323A1, “METHOD FOR DETERMINING PROTEASE ACTIVITY IN A BIOLOGICAL SAMPLE” (CytomX Therapeutics, Inc., priority 2021, published 2024).

Target: T1, IQ Probe (internally quenched linear polypeptide containing the S01 substrate)
T1 chain: LSGRSDNH

B1: Recombinant human MT-SP1 (membrane type serine protease 1; R&D Systems 3946-SEB) (protein)
chain: VVGGTDADEGEWPWQVSLHALGQGHICGASLISPNWLVSAAHCYIDDRGFRYSDPTQWTAFLGLHDQSQRSAPGVQERRLKRIISHPFFNDFTFDYDIALLELEKPAEYSSMVRPICLPDASHVFPAGKAIWVTGWGHTQYGGTGALILQKGEIRVINQTTCENLLPQQITPRMMCVGFLSGGVDSCQGDSGGPLSSVEADGRIFQAGVVSWGDGCAQRNKPGVYTRLPLFRDWIKENTGV
kcat/KM of the S01 substrate, IQ Probe relative to C225-S01: 4.6× and 3.5× times, respectively
